Data reported in PMC7954794, “Protein context shapes the specificity of SH3 domain-mediated interactions in vivo” (Nature Communications, 2021).

B1: S. cerevisiae Abp1 (full length; SH3 domain 535-592 mutated) / Hua2 (parent)
chain 1: MALEPIDYTTHSREIDAEYLKIVRGSDPDTTWLIISPNAKKEYEPESTGSSFHDFLQLFDETKVQYGLARVSPPGSDVEKIIIIGWCPDSAPLKTRASFAANFAAVANNLFKGYHVQVTARDEDDLDENELLMKISNAAGARYSIQTSSKQQGKASTPPVKKSFTPSKSPAPVSKKEPVKTPSPAPAAKISSRVNDNNDDDDWNEPELKERDFDQAPLKPNQSSYKPIGKIDLQKVIAEEKAKEDPRLVQKPTAAGSKIDPSSDIANLKNESKLKRDSEFNSFLGTTKPPSMTESSLKNDDDKVIKGFRNEKSPAQLWAERKAKQNSGNAETKAEAPKPEVPEDEPEGEPDVKDLKSKFEGLAASEKEEEEMENKFAPPPKKSEPTIISPKPFSKPQEPVKAEEAEQPKTDYKKIGNPLPGMHIEADNEEEPEENDDDWDDDEDEAAQPPLPSRNVASGAPVQKEEPEQEEIAPSLPSRNSIPAPKQEEAPEQAPEEEIEEEAEEAAPQLPSRSSAAPPPPPRRATPEKKPKENPWATAEYDYDAAEDNELTFVENDKIINIEFVDDDWWLGELEKDGSKGLFPSNYVSLGN
chain 2: MQQTKFGKMYLDHDSVVEYSEDEIVEADRITLGYKKRLSMIENQMRHLLEDFSLDVQQIEPILADLQKYYDAFLQLLQKRNKSLQCKRSTHQPVPSPMNSQTSTNAKVNLSGKLMKFQLNSVQKFDEENILRILQNKIEFEHYFQIDKGKKQKVLLLAVYQCLNGPTRLHKVLNIEGIIHNNSIRTILGKQVSSSKWTVFLYDVKLVLLAHRQDVPNLETSKMIVRYGDLFPCALYFKDHTAY

Variants of: B1
Assay: DHFR protein-fragment complementation in yeast (Abp1-DHFR F[1,2] x partner-DHFR F[3]), deep mutational scanning, second methotrexate selection vs reference
Conditions: with Hua2; S. cerevisiae, DHFR-PCA selection in liquid with methotrexate at 30 C, two 72 h selections (the score uses the second); reference = the pre-selection culture; not an affinity; value at the no-binding floor (a bound); scale: DMS score: mean over two replicates of log2(f_test/f_ref + 0.5)/ln 2, minus the synonymous-codon median

Variant	screen value
chain 1 Y543E	< -3.06
chain 1 Y543V	< -3.06
chain 1 Y543R	-3.05
chain 1 Y543P	< -3.06
chain 1 Y543T	-3.01
chain 1 Y543I	< -3.06
chain 1 Y543L	-3.02
chain 1 Y543M	< -3.06
chain 1 Y543A	< -3.06
chain 1 Y543G	-3.04
chain 1 I559C	-3.01
chain 1 I559E	-3
chain 1 I559R	-3.03
chain 1 I559P	< -3.06
chain 1 I559Q	< -3.06
chain 1 I559W	< -3.06
chain 1 I559D	-3.04
chain 1 I559A	< -3.06
chain 1 I559H	< -3.06
chain 1 I559G	-3.05
chain 1 I559K	< -3.06
chain 1 F583P	< -3.06

Variant	screen value
chain 1 F583W	< -3.06
chain 1 F583K	< -3.06
chain 1 F583E	< -3.06
chain 1 F583D	< -3.06
chain 1 F583G	< -3.06
chain 1 F583M	< -3.06
chain 1 F583A	< -3.06
chain 1 F583Q	< -3.06
chain 1 F583N	< -3.06
chain 1 F583T	< -3.06
chain 1 F583R	-3.02
chain 1 F583H	< -3.06
chain 1 L590D	< -3.06
chain 1 L590N	< -3.06
chain 1 L590G	-3.05
chain 1 E563P	-3.04
chain 1 K580P	-2.98
chain 1 W569N	< -3.06
chain 1 W569H	-3.05
chain 1 W569S	-2.99
chain 1 W569D	-3.03
chain 1 W569A	< -3.06

Variant	screen value
chain 1 W569T	< -3.06
chain 1 W569I	-2.99
chain 1 W569P	< -3.06
chain 1 G572Y	< -3.06
chain 1 G572A	-3.02
chain 1 G572D	< -3.06
chain 1 G572K	< -3.06
chain 1 G572F	< -3.06
chain 1 G572I	< -3.06
chain 1 G572L	-3.04
chain 1 G572Q	< -3.06
chain 1 G572C	< -3.06
chain 1 G572T	-3.04
chain 1 G572H	< -3.06
chain 1 G572P	< -3.06
chain 1 G572S	< -3.06
chain 1 G572M	< -3.06
chain 1 V588H	< -3.06
chain 1 V588N	< -3.06
chain 1 V588Y	< -3.06
chain 1 V588S	< -3.06
chain 1 V588R	< -3.06

Variant	screen value
chain 1 V588P	< -3.06
chain 1 V588K	-3.04
chain 1 V588Q	-3.02
chain 1 L551K	< -3.06
chain 1 L551G	< -3.06
chain 1 L551H	-2.98
chain 1 L551D	< -3.06
chain 1 L551Y	< -3.06
chain 1 L551W	< -3.06
chain 1 L551S	< -3.06
chain 1 L551A	-3.04
chain 1 W570D	< -3.06
chain 1 W570E	-3.03
chain 1 W570K	< -3.06
chain 1 W570P	< -3.06
chain 1 W570V	-3.02
chain 1 W570A	< -3.06
chain 1 W570M	-3.02
chain 1 W570T	< -3.06

Same assay, conditions: with Hua2; S. cerevisiae, DHFR-PCA selection in liquid with methotrexate at 30 C, two 72 h selections (the score uses the second); reference = the pre-selection culture; value at the no-binding floor (a bound); scale: DMS score: mean over two replicates of log2(f_test/f_ref + 0.5)/ln 2, minus the synonymous-codon median

Variant	screen value
chain 1 D567R	< -3.06
chain 1 D567K	-3.03
chain 1 D567S	-3.02
chain 1 D567C	< -3.06
chain 1 D567P	< -3.06
chain 1 D567T	-3
chain 1 D567I	< -3.06
chain 1 W569M	-2.99
chain 1 W569K	-3.02
